Laboratory results published in PMC9713952.

Target: T1, MBP-RAD51AP1-His6 WT (UniProt Q96B01 1-352)
T1 sequence: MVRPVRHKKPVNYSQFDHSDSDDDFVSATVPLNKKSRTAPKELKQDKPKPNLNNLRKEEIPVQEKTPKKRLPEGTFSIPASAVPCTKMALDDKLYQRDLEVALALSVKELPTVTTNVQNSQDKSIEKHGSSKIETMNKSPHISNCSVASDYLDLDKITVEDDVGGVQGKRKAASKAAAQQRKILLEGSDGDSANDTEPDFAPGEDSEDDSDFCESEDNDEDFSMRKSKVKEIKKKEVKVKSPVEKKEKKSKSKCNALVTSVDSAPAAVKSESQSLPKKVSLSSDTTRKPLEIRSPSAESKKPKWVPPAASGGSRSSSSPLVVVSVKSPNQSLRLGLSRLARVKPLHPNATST
Test: EMSA

B1: TERRA R-loop (mixed)
DNA 1: CATTGCATATTTAAAACATGTTGGATCTCAATTTCTATTTTATTTTTATTTTTTATTTCTTTATTTTACCATGAATTCAAATGACCTCTTATCAAGTGAC
DNA 2: GTCACTTGATAAGAGGTCATTTGAATTCATCCTAACCCTAACCCTAACCCTAACCCTAACCCTAACCCTAAGAGATCCAACATGTTTTAAATATGCAATG
RNA: UUAGGGUUAGGGUUAGGGUUAGGGUUAGGGUUAGGGUUAG
B1: binds.
